Experimental findings from IntAct's records for PubMed 21637298 are described below.

Experiment [1] addresses xrcc4_human XRCC4 (UniProt Q13426).
Experiment [2] shares this target. This is another data set of the same source.

Chain of xrcc4_human XRCC4 (Q13426 whole entry): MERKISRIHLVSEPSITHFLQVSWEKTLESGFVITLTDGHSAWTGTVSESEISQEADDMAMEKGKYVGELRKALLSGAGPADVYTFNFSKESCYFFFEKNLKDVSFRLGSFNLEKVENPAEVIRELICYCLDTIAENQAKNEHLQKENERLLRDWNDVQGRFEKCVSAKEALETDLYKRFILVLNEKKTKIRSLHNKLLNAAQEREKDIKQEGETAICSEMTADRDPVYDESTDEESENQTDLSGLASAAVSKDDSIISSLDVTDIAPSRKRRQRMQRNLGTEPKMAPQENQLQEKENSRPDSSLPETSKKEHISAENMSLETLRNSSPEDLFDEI

On to “Bifunctional polynucleotide phosphatase/kinase (Homo sapiens), Q96T60 S126A”, for which the “effect of a mutation on the interaction” value in experiment [1] is “decreasing interaction”.

For the substance “Bifunctional polynucleotide phosphatase/kinase (Homo sapiens), Q96T60 S114A”, the “effect of a mutation on the interaction” value in experiment [2] is given as “decreasing interaction”.
